Reference: PMC5995542
Values belong to the substance of their own block, whether it stands above or below them.

Legend:
[1] = biological target: E. coli 70S ribosome termination complex labelled with Cy3 at protein L11 (PreHC, PostHC* or PostHC) (E. coli) (UniProt P0A7J7); experiment: FRET or BRET; smFRET (TIRF), RF1(GAQ)-Cy5 (10 nM) on immobilised PostHC* (puromycin) labelled at L11-Cy3, with excess unlabelled RF3 (1 µM) and GTP (1 mM); 22°C
[2] = biological target: E. coli 70S ribosome termination complex labelled with Cy3 at protein L11 (PreHC, PostHC* or PostHC) (E. coli) (UniProt P0A7J7); experiment: FRET or BRET; smFRET (TIRF) between factor-Cy5 (10 nM, in solution) and L11-Cy3 on PreHC or PostHC (peptide released by puromycin or by the factor) immobilised by mRNA-biotin:neutravidin; no RF3; imaging buffer pH 7.5, 15 mM MgCl2, 22°C; koff from residence times, limited by photobleaching (0.07–0.19 s^-1)
[3] = biological target: E. coli 70S ribosome termination complex labelled with Cy3 at protein L11 (PreHC, PostHC* or PostHC) (E. coli) (UniProt P0A7J7); experiment: FRET or BRET; smFRET (TIRF), RF1(GAQ)-Cy5 (10 nM) on immobilised PreHC labelled at L11-Cy3, with excess unlabelled RF3 (1 µM) and GTP (1 mM); 22°C
[4] = biological target: E. coli 70S ribosome termination complex labelled with Cy3 at protein L11 (PreHC, PostHC* or PostHC) (E. coli) (UniProt P0A7J7); experiment: FRET or BRET; smFRET (TIRF), RF1-Cy5 (10 nM) on immobilised L11-Cy3 PreHC converted in situ to PostHC by RF1, with excess unlabelled RF3 (1 µM) and GTP (1 mM); 22°C
[5] = biological target: PostHC, post-hydrolysis termination complex: E. coli 70S ribosome labelled with Cy3 at protein L11, deacylated tRNAfMet in the P site and the stop codon UAA in the A site (E. coli) (UniProt P0A7J7); experiment: FRET or BRET; single-molecule FRET by TIRF, residence time: RF2-Cy5 (10 nM) on L11-Cy3 PostHC (peptide released by RF2) immobilised through mRNA-biotin:neutravidin; no RF3; imaging buffer pH 7.5, 15 mM MgCl2, 22°C
[6] = biological target: PostHC, post-hydrolysis termination complex: E. coli 70S ribosome labelled with Cy3 at protein L11, deacylated tRNAfMet in the P site and the stop codon UAA in the A site (E. coli) (UniProt P0A7J7); experiment: FRET or BRET; single-molecule FRET by TIRF, residence time: RF3-Cy5 (10 nM) with GDPNP (1 mM) on L11-Cy3 PostHC immobilised through mRNA-biotin:neutravidin; with saturating unlabelled RF1 (1 µM)

koff [1]: 1.3 s⁻¹
koff of the small fraction (8%) of complexes that release RF1(GAQ) slowly [1]: 0.12 s⁻¹
koff [2]: < 0.2 s⁻¹
koff [3]: < 0.3 s⁻¹
Substance: RF1(GAQ)-Cy5 (catalytically impaired RF1(G234A), Cy5-labelled) (from UniProt P0A7I0 1-360) (natural protein)

koff [2]: < 0.2 s⁻¹
koff [4]: 1.2 s⁻¹
Substance: RF1-Cy5 (release factor RF1, single-cysteine variant RF1(S167C) labelled with Cy5) (from UniProt P0A7I0 1-360) (natural protein)

koff [5]: 0.84 s⁻¹
Substance: RF2-Cy5, single-cysteine release factor RF2(C273) labelled with Cy5 (from UniProt P07012 1-365) (natural protein)

koff [6]: 2.5 s⁻¹
Substance: RF3-Cy5, single-cysteine release factor RF3(L233C) labelled with Cy5 (from UniProt P0A7I4 1-529) (natural protein)
